Experimental findings from patent US20070054846A1, “Bcl-w structure and uses therefor” (priority 2002, published 2007) are described below.

As usually defined, the Kd is a measure of binding affinity in units of concentration. The low end stands for higher affinity, the high end for lower affinity. The koff is the rate constant with which the complex falls apart. A low value points to slow dissociation. As a reminder, the kon is the rate constant with which the complex forms.

Assay [1] has as its target T1, BimLΔC27 (mouse, UniProt O54918-2 1-113).
T1 construct: Truncation by 27 C-terminal residues is stated, the end residue is not; Numbering (L94) is that of the BimL isoform, not of the canonical BimEL entry; Immobilised on the CM5 chip in SPR; soluble protein in GST pull-downs; also called C-terminally truncated BimL; wt BimLΔC27
T1 sequence: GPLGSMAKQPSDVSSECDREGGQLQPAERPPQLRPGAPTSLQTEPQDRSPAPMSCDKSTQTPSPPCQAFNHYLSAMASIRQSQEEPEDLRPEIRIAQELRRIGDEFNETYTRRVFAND
Description: SPR (BIAcore 2000), BimLΔC27 immobilised. The protocol:
(§1) Similar results were obtained when a corresponding mutation (L138A) was introduced into another BH3-only protein, Bmf (not shown).
(§2) Analysis of protein interactions by surface plasmon resonance was carried out on a BIAcore 2000 biosensor (BIAcore). For the immobilisation to BIAcore CM 5 sensorchips (BIAcore), wild-type or mutant Bim proteins were buffer exchanged into 20 mM Na-acetate, pH 4.5. N-hydroxysuccinimide coupling and binding analysis was done as described previously (Lackmann et al., 1997). In order to minimise mass-transport mediated effects the kinetic experiments were routinely carried out at 20 μl/min. Bcl-w binding at concentrations between 2 and 0.03 μM in running buffer (10 mM HEPES, pH 7.4, 150 mM NaCl, 3.4 mM EDTA, 0.005% Tween 20) was performed on sensorchip surfaces derivatised on parallel channels with a non-relevant protein, BimLΔC27 and BimLΔC27-L94A. The binding kinetics were derived from the sensorgrams following subtraction of baseline responses (measured on the control channel) by ‘global analysis’ using the BIA Evaluation software (vers. 3.02, BIAcore).
A general note: In SPR one partner is held on a chip, and binding of the other changes the refractive index at the surface.

The target of assay [2] is T2, BimLΔC27-L94A (mouse, UniProt O54918-2 1-113).
T2 construct: also called Bim containing the L94 mutation; L94A mutant
T2 sequence: T1 sequence with L99A
The experiment in a line: SPR (BIAcore 2000), BimLΔC27-L94A immobilised; Bcl-w truncated by 29 residues (Bcl-wΔC29). The protocol: as §1, §2

Assay [3] addresses T1, BimLΔC27. Description: SPR (BIAcore 2000), global fit to a 1:1 Langmuir model. Sheet heads Bcl-w 'Immobilized' and Bim 'Analyte'; text says Bim immobilised, Bcl-w in solution. As for the experimental part: (§3) FIG. 3A is a table showing the binding constants for various Bcl-w-BH3-only ligand complexes, which were determined using Biosensor experiments as described herein. FIG. 3B is a graphical representation showing the interaction kinetics of Bcl-w binding to BimLΔC27. Samples of serially diluted Bcl-w (2 μM-62.5 nM) were analysed on a BimLΔC27 sensor surface as described in Experimental Procedures. […] FIG. 3C is a graphical representation showing the interaction kinetics of Bcl-w or Bcl-wΔC29 binding to BimLΔC27 or BimLΔC27-L94A. […] Relative responses of samples between 1 μM and 62.5 nM are shown. FIG. 3D is a photographic representation of a GST pull-down assay to assess the binding capacity of Bcl-w proteins. Approximately equivalent amounts of the indicated GST-Bcl-w proteins were mixed with either soluble wt BimLΔC27 or soluble BimLΔC27-L94A. The intensity of the Bim band indicated the amount of protein that bound to Bcl-w. Molecular weight standards in kDa are indicated.
as §2, with “3.02, BIAcore). The surface of the chip was regenerated with 50 mM 1,2-diethylamine containing 0.1% Triton X100, followed by two washes with running buffer.” for “3.02, BIAcore).”

The target in assay [4] is T2, BimLΔC27-L94A. The description is as above. As for the experimental part: as §3
as §2, with “3.02, BIAcore). The surface of the chip was regenerated with 50 mM 1,2-diethylamine containing 0.1% Triton X100, followed by two washes with running buffer.” for “3.02, BIAcore).”

A further assay concerns the target T3, Bim-BH3 peptide (mouse).
T3 peptide: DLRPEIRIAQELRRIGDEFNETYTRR
Description: NMR, 15N-NOESY-HSQC chemical shift changes.

Assay [5] has as its target T2, BimLΔC27-L94A. The experiment in a line: SPR (BIAcore 2000). The protocol: as §1, §2
The target in assay [6] is T2, BimLΔC27-L94A. Description: SPR (BIAcore 2000), BimLΔC27-L94A immobilised, Bcl-w in solution; full-length Bcl-w. As for the experimental part:
as §1, §2

Assay [7] concerns the target T1, BimLΔC27. Description: SPR (BIAcore 2000), BimLΔC27 immobilised, Bcl-w in solution, global 1:1 Langmuir fit. As for the experimental part: as §1, §2
For the next assay, the target named is T4, Bim (UniProt O54918-2 1-140, limits assumed).
T4 construct: also called BH3-only protein Bim
T4 sequence (looked up): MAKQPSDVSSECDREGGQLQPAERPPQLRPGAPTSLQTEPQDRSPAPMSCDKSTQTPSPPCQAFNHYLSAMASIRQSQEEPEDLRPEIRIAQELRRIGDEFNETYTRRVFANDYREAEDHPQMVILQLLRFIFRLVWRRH
The experiment in a line: not described.

Assay [8] has as its target T5, FLAG Bcl-xL (full-length) (UniProt Q07817 1-233).
T5 construct: also called FLAG-tagged full-length Bcl-xL; not shown: FLAG tag
Description: co-immunoprecipitation from 35S-labelled 293T lysates with anti-FLAG (α-F), anti-EE (α-E) and control anti-HA (α-H) [upper right gel]. An excerpt:
FIG. 4 comprises photographic representations showing that the in vivo and in vitro binding properties of Bcl-xL resemble that of Bcl-w. FIG. 4A is a photographic representation showing that the C-terminus of Bcl-w restricts access to the binding groove in vivo. Equivalent ³⁵S-labeled 293T lysates obtained from cells co-expressing FLAG Bcl-w or Bcl-wΔC29, and EE-BimEL or BimEL-L150A, were immunoprecipitated using the anti-FLAG M2 (α-F), anti-EE (α-E) or control anti-HA (α-H) monoclonal antibodies. The immunoprecipitations were fractionated on SDS-PAGE gels. FIG. 4B is a photographic representation showing that the C-terminus of Bcl-xL restricts access to the binding groove in vivo. Co-precipitation experiments similar to those described in FIG. 4A using lysates from cells co-expressing FLAG Bcl-xL or Bcl-xLΔC24, and EE-BimL or BimL-L94A. […]
Cell culture, stable transfections into FDC-P1, transient transfections into 293T human embryonic kidney cells, metabolic labelling with ³⁵S-methionine/cysteine (NEN) and co-immunoprecipitation have been previously described (O'Connor et al., 1998, Moriishi et al., 1999; Huang et al., 1998; Wilson-Annan et al., 2003). […] The immunoprecipitates were resolved by SDS-PAGE (Novex), transferred onto nitrocellulose membranes (APB) and the proteins detected by fluorography (Amplify; APB).

Changes are numbered by the printed parent chain. In names and notes the source's numbering stands.

T5 sequence (Q07817 whole entry): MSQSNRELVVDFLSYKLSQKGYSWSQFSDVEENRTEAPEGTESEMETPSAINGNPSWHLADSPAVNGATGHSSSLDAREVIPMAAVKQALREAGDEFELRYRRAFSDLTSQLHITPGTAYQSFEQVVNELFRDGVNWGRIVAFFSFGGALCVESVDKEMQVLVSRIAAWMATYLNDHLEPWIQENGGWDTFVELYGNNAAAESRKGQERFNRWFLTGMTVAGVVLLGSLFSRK

B1: Bcl-wΔC29 (purified recombinant protein) (other)
chain: GPLGSMATPASAPDTRALVADFVGYKLRQKGYVCGAGPGEGPAADPLHQAMRAAGDEFETRFRRTFSDLAAQLHVTPGSAQQRFTQVSDELFQGGPNWGRLVAFFVFGAALCAESVNKEMEPLVGQVQEWMVAYLETRLADWIHSSGGWAEFTALYGDGALEEARRLRE
notes: Residue limits 1-164 follow from 193 aa minus 29; also called Bcl-w truncated by 29 residues at the C-terminus
For B1, the Kd came out at 11 nM in the assay with BimLΔC27 [1] and 13 nM with BimLΔC27-L94A [2]. In addition, the “fold increase in the association rate against full-length Bcl-w” value in the assay with BimLΔC27 [1] was 3 fold. The dissociation rate constant (koff) in the assay with BimLΔC27 [3] came out at 0.0061 s⁻¹; with BimLΔC27-L94A [4] it was 0.0028 s⁻¹. The association rate constant (kon) was found to be 570000 M⁻¹ s⁻¹ with BimLΔC27 [3] and 210000 M⁻¹ s⁻¹ with BimLΔC27-L94A [4].

B2: Bcl-wΔC10 (A128E), purified, NMR sample (other)
chain: GPLGSMATPASAPDTRALVADFVGYKLRQKGYVCGAGPGEGPAADPLHQAMRAAGDEFETRFRRTFSDLAAQLHVTPGSAQQRFTQVSDELFQGGPNWGRLVAFFVFGAALCAESVNKEMEPLVGQVQEWMVEYLETRLADWIHSSGGWAEFTALYGDGALEEARRLREGNWASVRTVLTGAVALGAL
notes: Isotope-labelled (15N) protein for the NOESY-HSQC with the Bim-BH3 peptide
For B2, the binding result with Bim-BH3 peptide is “binds”.

B3: Bcl-w (full-length, purified recombinant protein) (other)
chain: GPLGSMATPASAPDTRALVADFVGYKLRQKGYVCGAGPGEGPAADPLHQAMRAAGDEFETRFRRTFSDLAAQLHVTPGSAQQRFTQVSDELFQGGPNWGRLVAFFVFGAALCAESVNKEMEPLVGQVQEWMVAYLETRLADWIHSSGGWAEFTALYGDGALEEARRLREGNWASVRTVLTGAVALGALVTVGAFFASK
notes: Expressed as GST fusion in E. coli, released with PreScission protease; analyte in solution in the BIAcore experiments; also called full length Bcl-w; wild-type Bcl-w
Take B3: in the assay with BimLΔC27-L94A [5], the “fold decrease in the association rate against BimLΔC27” value was determined as 10 fold, the “fold increase in the dissociation rate against BimLΔC27” value worked out at 5 fold and the “fold reduction of affinity against BimLΔC27” value is more than 60 fold. The same molecule came in with a Kd in the assay with BimLΔC27-L94A [6] of 1600 nM. Further, in the assay with BimLΔC27 [7], the Kd worked out at 24 nM. For the same molecule, in the assay with BimLΔC27 [3], the off-rate constant (koff) worked out at 0.0043 s⁻¹ and the association rate constant (kon) turned out to be 180000 M⁻¹ s⁻¹. In the assay with BimLΔC27-L94A [4], this molecule gave a koff of 0.02 s⁻¹ and a kon of 13000 M⁻¹ s⁻¹.

B4: Bcl-w with Arg95 mutated to Ala (other)
chain: MATPASAPDTRALVADFVGYKLRQKGYVCGAGPGEGPAADPLHQAMRAAGDEFETRFRRTFSDLAAQLHVTPGSAQQRFTQVSDELFQGGPNWGALVAFFVFGAALCAESVNKEMEPLVGQVQEWMVAYLETRLADWIHSSGGWAEFTALYGDGALEEARRLREGNWASVRTVLTGAVALGALVTVGAFFASK
notes: Construct and assay not described; also called Bcl-w R95A
In the case of B4, the binding result with Bim is “no binding”.

B5: EE-BimL-L94A (ligand, UniProt O54918-2 1-140, looked up)
chain: T4 sequence (looked up) with L94A
notes: also called L94A mutant; not shown: EE (Glu-Glu) tag
B5: the binding result in [8] is on record as “no binding”.
